Test results: patent US20220016127A1, “COMPOSITIONS AND METHODS FOR INDUCING APPENDAGE AND LIMB REGENERATION” (priority 2020, published 2022)

System: Aurelia ephyra
Test: Arm regeneration induction in amputated Aurelia ephyrae
Assay type: in vivo, Aurelia aurita
Conditions: amputated ephyrae, factor added to artificial seawater upon amputation
Protocol: Amputation. Strobilated ephyrae were fed daily with rotifers (Brachionus plicatilis) until amputation time. 2-3 days old ephyrae were anesthetized in 400 μM menthol and amputated using a razor blade mounted on an x-acto knife handle. After amputation, ephyrae were let to recover in bubbler cones (FIG. 7). Regeneration was assessed at various times until 1-2 weeks after amputation, before onset of maturation to medusa.
Inducing regeneration. Experimental setup. 0.5-1 L sand settling cones were repurposed as jellyfish aquaria (Nalgene Imhoff; FIG. 7). Each cone was equipped with an airline from a Tetra Whisper air pump 100 to create a gentle vertical current (˜1 bubble/sec, see FIG. 30). The conical geometry eliminates stagnant spots, where the ephyrae could get stuck. In this “bubbler cone” setup, the ephyrae were continually in water current either in the upward air bubble-generated current or the downward self-generated current. 500 mL artificial seawater and 30 ephyrae were placed in each cone to avoid crowding and fouling. Artificial seawater was changed every week. Nutrients. […]
Amputation. […] Regeneration was assessed at various times for 1-2 weeks after amputation, before onset of maturation to medusa. […]

B1: Egf: protein tested in the screen (hEGF recombinant, Sigma E9644) (protein, UniProt P01133 23-1207, looked up)
Pro-epidermal growth factor: PQHWSCPEGTLAGNGNSTCVGPAPFLIFSHGNSIFRIDTEGTNYEQLVVDAGVSVIMDFHYNEKRIYWVDLERQLLQRVFLNGSRQERVCNIEKNVSGMAINWINEEVIWSNQQEGIITVTDMKGNNSHILLSALKYPANVAVDPVERFIFWSSEVAGSLYRADLDGVGVKALLETSEKITAVSLDVLDKRLFWIQYNREGSNSLICSCDYDGGSVHISKHPTQHNLFAMSLFGDRIFYSTWKMKTIWIANKHTGKDMVRINLHSSFVPLGELKVVHPLAQPKAEDDTWEPEQKLCKLRKGNCSSTVCGQDLQSHLCMCAEGYALSRDRKYCEDVNECAFWNHGCTLGCKNTPGSYYCTCPVGFVLLPDGKRCHQLVSCPRNVSECSHDCVLTSEGPLCFCPEGSVLERDGKTCSGCSSPDNGGCSQLCVPLSPVSWECDCFPGYDLQLDEKSCAASGPQPFLLFANSQDIRHMHFDGTDYGTLLSQQMGMVYALDHDPVENKIYFAHTALKWIERANMDGSQRERLIEEGVDVPEGLAVDWIGRRFYWTDRGKSLIGRSDLNGKRSKIITKENISQPRGIAVHPMAKRLFWTDTGINPRIESSSLQGLGRLVIASSDLIWPSGITIDFLTDKLYWCDAKQSVIEMANLDGSKRRRLTQNDVGHPFAVAVFEDYVWFSDWAMPSVMRVNKRTGKDRVRLQGSMLKPSSLVVVHPLAKPGADPCLYQNGGCEHICKKRLGTAWCSCREGFMKASDGKTCLALDGHQLLAGGEVDLKNQVTPLDILSKTRVSEDNITESQHMLVAEIMVSDQDDCAPVGCSMYARCISEGEDATCQCLKGFAGDGKLCSDIDECEMGVPVCPPASSKCINTEGGYVCRCSEGYQGDGIHCLDIDECQLGEHSCGENASCTNTEGGYTCMCAGRLSEPGLICPDSTPPPHLREDDHHYSVRNSDSECPLSHDGYCLHDGVCMYIEALDKYACNCVVGYIGERCQYRDLKWWELRHAGHGQQQKVIVVAVCVVVLVMLLLLSLWGAHYYRTQKLLSKNPKNPYEESSRDVRSRRPADTEDGMSSCPQPWFVVIKEHQDLKNGGQPVAGEDGQAADGSMQPTSWRQEPQLCGMGTEQGCWIPVSSDKGSCPQVMERSFHMPSYGTQTLEGGVEKPHSLLSANPLWQQRALDPPHQMELTQ
modifications: Pro-epidermal growth factor
effect on arm regeneration / regeneration frequency (in words): no effect
